Test results: patent US6713057B1, “Compositions and methods for modulating serum cholesterol” (The Johns Hopkins University, priority 1999, dated 2004)

Test system: SREBP-1
Test: SREBP-1 proteolysis (maturation) assay, Western immunoblot of nuclear fractions, HH-25 hepatocytes
Type: cell-based, human
Details: HH-25 hepatocytes, sterol independent
Procedure: FIGS. 2A-2C illustrate effects of TNF-α sphingomyelinase and C2-ceramide on the kinetics of SREBP-1 maturation—FIGS. 2A-2C is explained in more detail as follows: Cells were maintained in media supplemented with 1 μg/ml 25-hydroxy cholesterol and 15 μg/ml cholesterol for 24 hours before the experiment. The cells were treated for the indicated time as described in materials and methods. The cells were then harvested in PBS, pelleted and frozen. Lysis and nuclear fractionation were performed as described. Nuclear fractions (50 μg of protein) were electrophoresed on a 7.5% polyacrylamide gel and transferred to a PVDF membrane. Western blotting was performed as described. Band intensity was quantified via densitometry. Error bars represent ±one standard deviation from the mean. 2A) The kinetics of SREBP maturation as measured by the increase in mature SREBP-1 are plotted. Fold increase was calculated by comparing each time point to the corresponding control value (TNF-α is represented by stippled bars, bacterial sphingomyelinase is represented by light gray bars and C2-ceramide by the dark bars.) 2B) Cells were treated with TNF-α (10 ng/ml) and prepared as described above. The bands corresponding to the precursor and mature forms of SREBP-1 were quantified and their ratio plotted. 2C) Representative Western blots from which numerical data was derived. […]

B1: EGF: human recombinant EGF from Upstate Biotechnology (protein, UniProt P01133 23-1207, looked up)
Pro-epidermal growth factor: PQHWSCPEGTLAGNGNSTCVGPAPFLIFSHGNSIFRIDTEGTNYEQLVVDAGVSVIMDFHYNEKRIYWVDLERQLLQRVFLNGSRQERVCNIEKNVSGMAINWINEEVIWSNQQEGIITVTDMKGNNSHILLSALKYPANVAVDPVERFIFWSSEVAGSLYRADLDGVGVKALLETSEKITAVSLDVLDKRLFWIQYNREGSNSLICSCDYDGGSVHISKHPTQHNLFAMSLFGDRIFYSTWKMKTIWIANKHTGKDMVRINLHSSFVPLGELKVVHPLAQPKAEDDTWEPEQKLCKLRKGNCSSTVCGQDLQSHLCMCAEGYALSRDRKYCEDVNECAFWNHGCTLGCKNTPGSYYCTCPVGFVLLPDGKRCHQLVSCPRNVSECSHDCVLTSEGPLCFCPEGSVLERDGKTCSGCSSPDNGGCSQLCVPLSPVSWECDCFPGYDLQLDEKSCAASGPQPFLLFANSQDIRHMHFDGTDYGTLLSQQMGMVYALDHDPVENKIYFAHTALKWIERANMDGSQRERLIEEGVDVPEGLAVDWIGRRFYWTDRGKSLIGRSDLNGKRSKIITKENISQPRGIAVHPMAKRLFWTDTGINPRIESSSLQGLGRLVIASSDLIWPSGITIDFLTDKLYWCDAKQSVIEMANLDGSKRRRLTQNDVGHPFAVAVFEDYVWFSDWAMPSVMRVNKRTGKDRVRLQGSMLKPSSLVVVHPLAKPGADPCLYQNGGCEHICKKRLGTAWCSCREGFMKASDGKTCLALDGHQLLAGGEVDLKNQVTPLDILSKTRVSEDNITESQHMLVAEIMVSDQDDCAPVGCSMYARCISEGEDATCQCLKGFAGDGKLCSDIDECEMGVPVCPPASSKCINTEGGYVCRCSEGYQGDGIHCLDIDECQLGEHSCGENASCTNTEGGYTCMCAGRLSEPGLICPDSTPPPHLREDDHHYSVRNSDSECPLSHDGYCLHDGVCMYIEALDKYACNCVVGYIGERCQYRDLKWWELRHAGHGQQQKVIVVAVCVVVLVMLLLLSLWGAHYYRTQKLLSKNPKNPYEESSRDVRSRRPADTEDGMSSCPQPWFVVIKEHQDLKNGGQPVAGEDGQAADGSMQPTSWRQEPQLCGMGTEQGCWIPVSSDKGSCPQVMERSFHMPSYGTQTLEGGVEKPHSLLSANPLWQQRALDPPHQMELTQ
modifications: Pro-epidermal growth factor
notes: human recombinant EGF from Upstate Biotechnology
- induction of SREBP-1 maturation (increase in mature SREBP-1), in words: could not be recapitulated
